What all share (experiment): BLI
A general note: BLI is a label-free optical method that tracks binding on a fibre tip over time.

In test [1] the target is His6-SeSepF (Spiroplasma eriocheiris SepF) (Spiroplasma eriocheiris).
For test [2] the target is unchanged. This is another data set of the same source.
The target is the same in test [3]. This is another data set of the same source.

Several values for one entry are separate records, joined by “and”; a condition that tells them apart may be missing. Identical values can stand only once. Like-named read-outs stand apart in the source and are kept apart here.

For the substance “SeFtsZ L272E mutant (from UniProt A0A0H3XMR3 1-411) (natural protein)”, the Kd (commonly a measure of binding affinity in units of concentration) in test [1] was 980 nM and 700 nM.

“Spiroplasma eriocheiris FtsZ, His-tag removed (from UniProt A0A0H3XMR3 1-411) (natural protein)”: the Kd in test [1] came to 1130 nM; in test [2] it was 1040 nM; in test [3] it was 53900 nM.

Values taken from doi:10.1101/2024.10.15.618391.
